Measurements published in patent publication US20260167693A1 (ANGELES THERAPEUTICS, published 2026).

T1: CD19-ECD-GGSG-NLuc-AcV5 (human)
T1 construct: also called CD19-GGSG-NLuc-AcV5; Flag-CD19-GGSG-NLuc-AcV5
T1 chain: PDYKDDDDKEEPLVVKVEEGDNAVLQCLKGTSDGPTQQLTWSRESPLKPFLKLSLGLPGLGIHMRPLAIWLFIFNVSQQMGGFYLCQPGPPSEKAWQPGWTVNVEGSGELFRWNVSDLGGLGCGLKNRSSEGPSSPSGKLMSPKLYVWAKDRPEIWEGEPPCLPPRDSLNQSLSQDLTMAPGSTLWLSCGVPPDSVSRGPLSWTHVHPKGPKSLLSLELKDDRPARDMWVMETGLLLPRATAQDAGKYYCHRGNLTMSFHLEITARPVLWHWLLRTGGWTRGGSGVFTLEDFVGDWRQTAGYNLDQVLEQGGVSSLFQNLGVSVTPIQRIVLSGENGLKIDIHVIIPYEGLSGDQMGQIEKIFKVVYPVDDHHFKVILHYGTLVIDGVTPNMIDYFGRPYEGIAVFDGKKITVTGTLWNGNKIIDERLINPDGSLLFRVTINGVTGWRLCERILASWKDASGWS


Tests used:
[1] = target: T1, CD19-ECD-GGSG-NLuc-AcV5; assay: NLuc binding assay, SIR on Jurkat-NFAT-GFP cells
[2] = target: T1, CD19-ECD-GGSG-NLuc-AcV5; assay: NLuc binding assay, SIR on Jurkat-NFAT-Luc cells
[3] = target: T1, CD19-ECD-GGSG-NLuc-AcV5; assay: NLuc binding assay, single chain unit in Jurkat-NFAT-GFP cells

| CD19-GGSG-NLuc (RLU) [1] [RLU] | binding result [2] | binding result [3] | Binder |
| --- | --- | --- | --- |
| 768 | no binding |  | CD8SP-FMC63-vL-V5-[hTCRb-WT]-F-P2A-SP-FMC63-vH-Myc-[hTCRa-WT]-F-F2A-PAC (080815-F02)[SEQ ID NO:922] (other, SIR with wild-type TCR constant chains; Polyprotein PRT 3157) TCR beta: DIQMTQTTSSLSASLGDRVTISCRASQDISKYLNWYQQKPDGTVKLLIYHTSRLHSGVPSRFSGSGSGTDYSLTISNLEQEDIATYFCQQGNTLPYTFGGGTKLEITGKPIPNPLLGLDSTGSGEDLKNVFPPEVAVFEPSEAEISHTQKATLVCLATGFYPDHVELSWWVNGKEVHSGVSTDPQPLKEQPALNDSRYCLSSRLRVSATFWQNPRNHFRCQVQFYGLSENDEWTQDRAKPVTQIVSAEAWGRADCGFTSESYQQGVLSATILYEILLGKATLYAVLVSALVLMAMVKRKDSRG TCR alpha: EVKLQESGPGLVAPSQSLSVTCTVSGVSLPDYGVSWIRQPPRKGLEWLGVIWGSETTYYNSALKSRLTIIKDNSKSQVFLKMNSLQTDDTAIYYCAKHYYYGGSYAMDYWGQGTSVTVSSEQKLISEEDGSGIQNPDPAVYQLRDSKSSDKSVCLFTDFDSQTNVSQSKDSDVYITDKTVLDMRSMDFKSNSAVAWSNKSDFACANAFNNSIIPEDTFFPSPESSCDVKLVEKSFETDTNLNFQNLSVIGFRILLLKVAGFNLLMTLRLWSS |
|  |  | no binding | CD8SP-FMC63-vH-MYC-[TCRα-CSDVP]-F-F2A-BlastR (other, One functional polypeptide unit alone in Jurkat-NFAT-GFP cells; PRT 3232; also called 041916-A02) TCR alpha: EVKLQESGPGLVAPSQSLSVTCTVSGVSLPDYGVSWIRQPPRKGLEWLGVIWGSETTYYNSALKSRLTIIKDNSKSQVFLKMNSLQTDDTAIYYCAKHYYYGGSYAMDYWGQGTSVTVSSEQKLISEEDGSGIQNPDPAVYQLRDSKSSDKSVCLFTDFDSQTNVSQSKDSDVYITDKCVLDMRSMDFKSNSAVAWSNKSDFACANAFNNSIIPEDTFFPSSDVPCDVKLVEKSFETDTNLNFQNLSVIGFRILLLKVAGFNLLMTLRLWSS |
|  |  | no binding | CD8SP-FMC63-vL-V5-[hTCRb-KACIAH]-F-P2A-PAC (other, One functional polypeptide unit alone in Jurkat-NFAT-GFP cells; PRT 3148; also called 050216-S08) TCR beta: DIQMTQTTSSLSASLGDRVTISCRASQDISKYLNWYQQKPDGTVKLLIYHTSRLHSGVPSRFSGSGSGTDYSLTISNLEQEDIATYFCQQGNTLPYTFGGGTKLEITGKPIPNPLLGLDSTGSGEDLKNVFPPEVAVFEPSKAEIAHTQKATLVCLATGFYPDHVELSWWVNGKEVHSGVCTDPQPLKEQPALNDSRYCLSSRLRVSATFWQNPRNHFRCQVQFYGLSENDEWTQDRAKPVTQIVSAEAWGRADCGITSASYHQGVLSATILYEILLGKATLYAVLVSALVLMAMVKRKDSRG |
